The values that follow come from publication PMC3511906 (Biochemistry, 2012).

This data set deals with the molecule itself. Briefly: crystal structure.

One may read the stoichiometry N as a count of units in the complex or per binding partner.

B1: MIP-2/CXCL2 (murine macrophage inflammatory protein-2) (natural protein, UniProt P10889 28-100, looked up)
chain: AVVASELRCQCLKTLPRVDFKNIQSLSVTPPGPHCAQTEVIATLKGGQKVCLDPEAPLVQKIIQKILNKGKAN
B1: the “stoichiometry N” value was found to be 2.
